Reference: the Immune Epitope Database (IEDB)
pIC50, pKd: −log10 of the molar value.

Experiments:
HLA-A*01:01 [1] = experiment: IEDB peptide-MHC binding, purified MHC/competitive/radioactivity; ≥ and ≤ were set here for values at or beyond the usual limits of such assays
HLA-A*02:01 [2] = experiment: as above; conditions: source organism: Homo sapiens
HLA-A*24:02 = experiment: as above; conditions: source organism: Homo sapiens
HLA-B*18:01 [3] = experiment: IEDB peptide-MHC binding, purified MHC/direct/fluorescence; filed as Kd, often an IC50 or EC50 that approximates it; ≥ and ≤ were set here for values at or beyond the usual limits of such assays; conditions: source organism: Mycobacterium tuberculosis
HLA-B*58:01 = experiment: as above
HLA-B*48:01 = experiment: as above; conditions: source organism: Mycobacterium tuberculosis
HLA-A*02:01 [4] = experiment: as above; conditions: source organism: Mycobacterium tuberculosis
HLA-A*26:01 [5] = experiment: as above; conditions: source organism: Mycobacterium tuberculosis str. Haarlem
HLA-B*15:01 = experiment: as above
HLA-A*31:01 = experiment: as above; conditions: source organism: Mycobacterium tuberculosis
HLA-A*68:02 [6] = experiment: as above; conditions: source organism: Mycobacterium tuberculosis
HLA-B*57:01 [7] = experiment: as above; conditions: source organism: Mycobacterium tuberculosis
HLA-B*07:02 = experiment: as above; conditions: source organism: Mycobacterium tuberculosis
HLA-A*11:01 [8] = experiment: as above; conditions: source organism: Mycobacterium tuberculosis
HLA-B*27:05 = experiment: as above; conditions: source organism: Mycobacterium tuberculosis
HLA-A*69:01 [9] = experiment: as above; conditions: source organism: Mycobacterium tuberculosis
HLA-B*46:01 [10] = experiment: as above; conditions: source organism: Mycobacterium tuberculosis
HLA-A*01:01 [11] = experiment: as above; conditions: source organism: Mycobacterium tuberculosis
HLA-B*40:01 [12] = experiment: as above; conditions: source organism: Mycobacterium tuberculosis
HLA-A*02:06 = experiment: IEDB peptide-MHC binding, purified MHC/competitive/fluorescence; filed as Kd, often an IC50 or EC50 that approximates it; ≥ and ≤ were set here for values at or beyond the usual limits of such assays; conditions: source organism: Mycolicibacterium gilvum PYR-GCK
HLA-A*26:03 = experiment: as above; conditions: source organism: Mycolicibacterium gilvum PYR-GCK
HLA-B*35:01 = experiment: as above; conditions: source organism: Mycolicibacterium gilvum PYR-GCK
HLA-B*15:17 = experiment: as above
HLA-B*51:01 = experiment: as above; conditions: source organism: Burkholderia pseudomallei 668
HLA-B*18:01 [13] = experiment: as above; conditions: source organism: Burkholderia pseudomallei 668
HLA-A*03:01 = experiment: as above; conditions: source organism: Burkholderia pseudomallei 668
HLA-B*39:01 = experiment: as above; conditions: source organism: Burkholderia pseudomallei 668
HLA-B*15:42 = experiment: as above; conditions: source organism: Burkholderia pseudomallei 668
HLA-A*02:01 [14] = experiment: as above; conditions: source organism: Burkholderia pseudomallei 668
HLA-A*26:01 [15] = experiment: as above; conditions: source organism: Burkholderia pseudomallei 668
HLA-A*02:11 = experiment: as above; conditions: source organism: Burkholderia pseudomallei 668
HLA-A*68:02 [16] = experiment: as above; conditions: source organism: Burkholderia pseudomallei 668
HLA-B*57:01 [17] = experiment: as above
HLA-B*83:01 = experiment: as above; conditions: source organism: Burkholderia pseudomallei 668
HLA-B*45:06 = experiment: as above; conditions: source organism: Burkholderia pseudomallei 668
HLA-A*69:01 [18] = experiment: as above; conditions: source organism: Burkholderia pseudomallei 668
HLA-B*46:01 [19] = experiment: as above; conditions: source organism: Burkholderia pseudomallei 668
HLA-A*24:03 = experiment: as above; conditions: source organism: Burkholderia pseudomallei 668
HLA-A*29:02 = experiment: as above; conditions: source organism: Burkholderia pseudomallei 668
HLA-B*27:03 = experiment: as above; conditions: source organism: Burkholderia pseudomallei 668
HLA-A*23:01 = experiment: as above; conditions: source organism: Burkholderia pseudomallei 668
HLA-B*40:01 [20] = experiment: as above
HLA-A*02:01 [21] = experiment: IEDB peptide-MHC binding, cellular MHC/competitive/fluorescence; ≥ and ≤ were set here for values at or beyond the usual limits of such assays; conditions: source organism: Homo sapiens
HLA-B*53:01 = experiment: IEDB peptide-MHC binding, purified MHC/competitive/fluorescence; ≥ and ≤ were set here for values at or beyond the usual limits of such assays; conditions: source organism: Human herpesvirus 4 type 2
HLA-A*11:01 [22] = experiment: IEDB peptide-MHC binding, purified MHC/competitive/fluorescence; filed as Kd, often an IC50 or EC50 that approximates it; ≥ and ≤ were set here for values at or beyond the usual limits of such assays; conditions: source organism: human gammaherpesvirus 4
HLA-B*44:02 = experiment: as above; conditions: source organism: Escherichia coli O139:H28 str. E24377A
[23] = source organism: Mycobacterium tuberculosis
[24] = source organism: Burkholderia pseudomallei 668
[25] = source organism: Escherichia coli
[26] = source organism: Escherichia coli O139:H28 str. E24377A

YGDDVIFSY showed a pIC50 (HLA-A*01:01 [1]; source organism: Rhinovirus A) of 6.70.

RLDCWRGGQV was tested, and the pIC50 (HLA-A*02:01 [2]) was 6.60.

IFSKASEYL gave a pIC50 (HLA-A*24:02) of 6.28.

In the case of ALYLLDGLR, the pKd (HLA-B*18:01 [3]) was no more than 4.70, the pKd (HLA-B*58:01; [23]) was no more than 4.70 and the pKd (HLA-B*48:01) was no more than 4.70. It also gave a pKd (HLA-A*02:01 [4]) of no more than 4.70, a pKd (HLA-A*26:01 [5]) of no more than 4.70 and a pKd (HLA-B*15:01; [23]) of no more than 4.70. It also gave a pKd (HLA-A*31:01) of 6.97, a pKd (HLA-A*68:02 [6]) of no more than 4.70 and a pKd (HLA-B*57:01 [7]) of no more than 4.70. It also gave a pKd (HLA-B*07:02) of no more than 4.70, a pKd (HLA-A*11:01 [8]) of 5.13 and a pKd (HLA-B*27:05) of no more than 4.70. It also gave a pKd (HLA-A*69:01 [9]) of no more than 4.70, a pKd (HLA-B*46:01 [10]) of no more than 4.70 and a pKd (HLA-A*01:01 [11]) of no more than 4.70. For the same sequence, the pKd (HLA-B*40:01 [12]) was no more than 4.70, the pKd (HLA-A*02:06) was no more than 4.70 and the pKd (HLA-A*26:03) was 6.00. For the same sequence, the pKd (HLA-B*35:01) was 5.92 and the pKd (HLA-B*15:17; source organism: Mycolicibacterium gilvum PYR-GCK) was 6.35.

ILFDRLPIA showed a pKd (HLA-B*51:01) of no more than 4.70, a pKd (HLA-B*18:01 [13]) of no more than 4.70 and a pKd (HLA-A*03:01) of no more than 4.70. For the same sequence, the pKd (HLA-B*39:01) was no more than 4.70, the pKd (HLA-B*15:42) was 6.01 and the pKd (HLA-A*02:01 [14]) was no less than 10.00. For the same sequence, the pKd (HLA-A*26:01 [15]) was no more than 4.70, the pKd (HLA-A*02:11) was no less than 10.00 and the pKd (HLA-A*68:02 [16]) was no more than 4.70. It also gave a pKd (HLA-B*57:01 [17]; [24]) of no more than 4.70, a pKd (HLA-B*83:01) of no more than 5.30 and a pKd (HLA-B*45:06) of no more than 5.30. The pKd (HLA-A*69:01 [18]) was no more than 4.70, the pKd (HLA-B*46:01 [19]) was no more than 4.70 and the pKd (HLA-A*24:03) was no more than 4.70. For the same sequence, the pKd (HLA-B*15:17; [24]) was no more than 4.70, the pKd (HLA-A*29:02) was no more than 4.70 and the pKd (HLA-B*27:03) was no more than 4.70. The pKd (HLA-A*23:01) was no more than 4.70.

FYDPMFKYHL was tested, and the pIC50 (HLA-A*24:02) was 6.82.

LLAVGATKV showed a pIC50 (HLA-A*02:01 [2]) of 6.48.

For WEKAWPAVF, the pKd (HLA-B*40:01 [20]; source organism: Escherichia coli O157:H7 str. EDL933) was 7.02.

For LLDRFLATV, the pIC50 (HLA-A*02:01 [21]) was 6.25.

In the case of ALLDKLYAL, the pIC50 (HLA-A*02:01 [21]) was 5.93.

For IEDKNLYMF, the pKd (HLA-B*40:01 [20]; source organism: Bacillus mycoides KBAB4) was 7.90.

For FSSQLGLFY, the pIC50 (HLA-B*53:01) was 5.53 and the pKd (HLA-A*11:01 [22]) was 6.02.

For KSAIVTLTY, the pIC50 (HLA-A*01:01 [1]; source organism: Human papillomavirus 16) was 7.96.

Sequence WSILRQRCW has a pKd (HLA-B*58:01; [25]) of 7.28, a pKd (HLA-B*15:01; [25]) of 7.03 and a pKd (HLA-B*57:01 [17]; [26]) of 6.97. It also gave a pKd (HLA-B*15:17; [26]) of 8.28 and a pKd (HLA-B*44:02) of no more than 4.70.
